Experimental data taken from PMC10144703, “Molecular Mechanism of Sirtuin 1 Inhibition by Human Immunodeficiency Virus 1 Tat Protein” (Life, 2023).

Key:
human Sirt6 = molecular target: T1, human Sirt6 (Homo sapiens, UniProt Q8N6T7); experiment: Continuous coupled enzymatic assay, Sirt6; format: biochemical; conditions: 65 μM Tat-Cys^−, myristoylated peptide at substrate Km, n = 3
T1 construct: Sirt6-(1-355) in pQE80L.1; made in house; host or cells: E. coli CodonPlus(DE3)
Text: A human mini-Sirt1 construct (aa 183-505-(GGGS)2-641-665), as described in [27], was generated in a modified pET-19b with a TEV cleavage site. This construct and human full-length Sirt1 (fl-Sirt1) in pET-15b, Sirt1-(183-664) and Sirt1-(214-664) in pET-15b, mini-Sirt1-∆SBD (aa 214-505-(GGGS)2-641-665) and mini-Sirt1-∆ESA (aa 183–505) in a modified pET-19b with TEV cleavage site, Sirt2-(43-356) in a modified pET-19b with a His6-Sumo tag, Sirt3-(93-399) in a modified pET-32a with Trx-His6 tag and TEV cleavage site, hSirt3-(118-399) in pVFT3S (Sungkyunkwan University, Seoul, Republic of Korea) with His6-Trx tag and TEV cleavage site, Sirt5-(34-302) in pET-151/D-TOPO, and Sirt6-(1-355) in pQE80L.1 were purified as described. […]
Continuous coupled enzymatic sirtuin activity assays were conducted as described. […] Reactions were monitored for 1 h at room temperature by absorption spectroscopy at 340 nm in a UV/vis plate reader (BioTek). The slope for the linear range (typically 5–25 min) was evaluated after background correction with measurements without NAD^+. Additional control reactions were run by either omitting enzyme or omitting peptide substrate to ensure that the signal measured reflects the NAD+-dependent deacetylation activity of the sirtuin.

mini-Sirt1 = molecular target: T2, mini-Sirt1 (Homo sapiens, UniProt Q96EB6); experiment: DSSO crosslinking and MS analysis of mini-Sirt1/Tat-Cys^−; format: binding
T2 construct: aa 183-505-(GGGS)2-641-665; made in house; host or cells: E. coli CodonPlus(DE3)
T2 sequence (Q96EB6 with tags, fused parts or gaps limits assumed): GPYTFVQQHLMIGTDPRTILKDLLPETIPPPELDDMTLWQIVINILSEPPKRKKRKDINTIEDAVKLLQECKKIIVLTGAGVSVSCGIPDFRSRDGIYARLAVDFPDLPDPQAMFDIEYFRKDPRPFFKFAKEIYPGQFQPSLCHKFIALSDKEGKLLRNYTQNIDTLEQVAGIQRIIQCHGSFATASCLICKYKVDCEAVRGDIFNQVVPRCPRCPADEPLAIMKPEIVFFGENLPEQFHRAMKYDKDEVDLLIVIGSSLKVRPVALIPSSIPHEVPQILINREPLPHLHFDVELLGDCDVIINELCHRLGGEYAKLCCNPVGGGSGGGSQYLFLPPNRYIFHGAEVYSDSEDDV
Method: Prior to crosslinking, mini-Sirt1, and Tat-Cys^− were dialyzed separately at 4 °C in Xpress Micro Dialyzer tubes (Serva, MD300, cutoff 6–8 kDa) against 25 mM HEPES, pH 7.5, 150 mM NaCl, 5% (v/v) glycerol. Then, 50 µM of each protein was crosslinked at 20 °C with 2.82 mM disuccinimidyl sulfoxide (DSSO) in 5% (v/v) DMSO. Before the addition of the crosslinker, 10 µL was removed from the reaction (t = 0 min) and stopped by adding 1 µL 1 M Tris/HCl, pH 8.0. Likewise, at several timepoints after the addition of DSSO, 10 µL of the reaction was sampled. Reaction samples were supplemented with SDS sample buffer and separated on a 15% SDS-PAGE. Controls contained only one of the two proteins and were treated similarly to exclude self-crosslinking.
Crosslinked protein bands were cut out from SDS-PAGE gels and digested with 200 ng trypsin in 25 mM NH4HCO3, pH 8.0, at 37 °C overnight. The digested proteins were dried in a vacuum centrifuge, resuspended in 0.1% (v/v) FA, and injected onto a desalting column, followed by automated peptide separation with a C18 column (buffer A: 0.1% (v/v) FA, 5% (v/v) acetonitrile; buffer B: 0.1% (v/v) FA, 95% (v/v) acetonitrile). MS/MS spectra were recorded with an LTQ mass spectrometer (Thermo Fischer Scientific, Waltham, MA, USA) and CID-cleaved inter-protein crosslinks were analyzed with Byonic^TM (Protein Metrics Inc., San Carlos, CA, USA).

[1] = molecular target: T3, human mini-Sirt1 (aa 183-505-(GGGS)2-641-665) (Homo sapiens, UniProt Q96EB6); experiment: FdL assay, mini-Sirt1; format: biochemical; conditions: Michaelis–Menten
T3 construct: aa 183-505-(GGGS)2-641-665; made in house; host or cells: E. coli CodonPlus(DE3)
T3 sequence (Q96EB6 with tags, fused parts or gaps limits assumed): T2 sequence (Q96EB6 with tags, fused parts or gaps limits assumed)
Text: A human mini-Sirt1 construct (aa 183-505-(GGGS)2-641-665), as described in [27], was generated in a modified pET-19b with a TEV cleavage site. This construct and human full-length Sirt1 (fl-Sirt1) in pET-15b, Sirt1-(183-664) and Sirt1-(214-664) in pET-15b, mini-Sirt1-∆SBD (aa 214-505-(GGGS)2-641-665) and mini-Sirt1-∆ESA (aa 183–505) in a modified pET-19b with TEV cleavage site, Sirt2-(43-356) in a modified pET-19b with a His6-Sumo tag, Sirt3-(93-399) in a modified pET-32a with Trx-His6 tag and TEV cleavage site, hSirt3-(118-399) in pVFT3S (Sungkyunkwan University, Seoul, Republic of Korea) with His6-Trx tag and TEV cleavage site, Sirt5-(34-302) in pET-151/D-TOPO, and Sirt6-(1-355) in pQE80L.1 were purified as described. Shortly, proteins were expressed at 20 °C (mini-Sirt1 constructs at 16 °C) in E. coli CodonPlus(DE3), cell lysates were cleared by centrifugation, and proteins were purified via affinity chromatography using a nickel NTA column. After digestion with thrombin or TEV protease, proteins were re-run over the nickel NTA column, pooled, and concentrated. The samples were, then, subjected either directly to size exclusion chromatography in 50 mM Tris/HCl, pH 8.0, 150 mM NaCl, 1 mM TCEP, or to an ion exchange chromatography followed by size exclusion chromatography. […]

T1 sequence (Q8N6T7 whole entry): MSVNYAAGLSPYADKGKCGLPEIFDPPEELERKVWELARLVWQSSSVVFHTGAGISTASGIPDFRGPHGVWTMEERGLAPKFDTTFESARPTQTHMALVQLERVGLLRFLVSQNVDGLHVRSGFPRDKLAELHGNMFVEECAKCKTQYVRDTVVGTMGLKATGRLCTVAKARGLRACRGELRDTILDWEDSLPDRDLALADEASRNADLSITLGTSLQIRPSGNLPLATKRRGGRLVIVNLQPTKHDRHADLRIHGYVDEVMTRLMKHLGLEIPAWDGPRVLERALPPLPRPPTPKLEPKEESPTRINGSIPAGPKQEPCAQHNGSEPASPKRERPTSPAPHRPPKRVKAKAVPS

B1: Tat-Cys^−: Recombinant 86-residue HIV1 Zaire 2 Tat with C22S, C25A, C27A, C30S, C31A, C34S, and C37A (protein)
chain: MDPVDPNIEPWNHPGSQPKTASNRAHAKKSAYHSQVAFITKGLGISYGRKKRRQRRRPSQGGQTHQDPIPKQPSSQPRGDPTGPKE
Question: With B1 as the molecule, how does the “inhibitory effect on Sirt6, continuous assay” value (human Sirt6) read?
Answer: Its value is “no statistically significant effect was observed”.

Question: And the “crosslinking, SDS-PAGE” value (mini-Sirt1; 50 µM each protein, 2.82 mM DSSO, 5% (v/v) DMSO, pH 7.5, 20 °C)?
Answer: The value was “a strong band for a linked complex”.

Question: And the “crosslink site by MS” value (mini-Sirt1; DSSO crosslink, trypsin digest, MS/MS)?
Answer: Its value is “a crosslink between Tat-Lys71 and Sirt1-Lys238”.

Question: What about the “inhibition mode vs acetylated substrate peptide, Sirt1” value ([1]; FdL-1, mini-Sirt1, increasing Tat-Cys^−, n = 3) of the same molecule?
Answer: Its value is “competitive with the acetylated substrate peptide”.

Question: What about the “inhibition mode vs NAD^+, Sirt1” value ([1]; NAD^+, mini-Sirt1, increasing Tat-Cys^−, n = 3–6) of the same molecule?
Answer: The value was “non-competitive with NAD^+”.
